Test results: PMC1914068

Target: LexA-TAP-Vpr (yeast two-hybrid bait) (HIV-1) (UniProt P05928)
Experiment: two-hybrid; LexA baits (pEG202) and B42 preys (pJG4-5) in S. cerevisiae EGY48; β-galactosidase activity by the o-nitrophenyl-β-D-galactopyranoside method

Substance: Vpr as yeast two-hybrid fusion (LexA-Vpr bait and B42-Vpr prey) (from UniProt P05928 1-96) (natural protein)
- fold weaker than dimerization of wild-type Vpr (β-galactosidase activity): 3 fold
